One molecule from PMC9258132, “Multi-omics profiling identifies a deregulated FUS-MAP1B axis in ALS/FTD–associated UBQLN2 mutants” can be followed below.

The series has as its target MBP-FUS-His6 WT (UniProt P35637 1-526). The experiment in a line: EMSA; 5 mM MgCl2, 0.1 mg/ml yeast tRNA; 5 nM RNA, 0-10 uM protein; 20 mM NaPO4 pH 8, 150 mM NaCl, 5% glycerol, 1 mM DTT, 5 mM MgCl2, 0.5 mg/ml BSA, 0.1 mg/ml yeast tRNA, 1 U/ul RNase inhibitor, 20 min RT; 6% native PAGE in 0.5x TBE. The following applies: protein: recombinant; tags: N-terminal MBP, C-terminal His6; hairpin with 3' single-stranded tail.

Chain of MBP-FUS-His6 WT (P35637 whole entry): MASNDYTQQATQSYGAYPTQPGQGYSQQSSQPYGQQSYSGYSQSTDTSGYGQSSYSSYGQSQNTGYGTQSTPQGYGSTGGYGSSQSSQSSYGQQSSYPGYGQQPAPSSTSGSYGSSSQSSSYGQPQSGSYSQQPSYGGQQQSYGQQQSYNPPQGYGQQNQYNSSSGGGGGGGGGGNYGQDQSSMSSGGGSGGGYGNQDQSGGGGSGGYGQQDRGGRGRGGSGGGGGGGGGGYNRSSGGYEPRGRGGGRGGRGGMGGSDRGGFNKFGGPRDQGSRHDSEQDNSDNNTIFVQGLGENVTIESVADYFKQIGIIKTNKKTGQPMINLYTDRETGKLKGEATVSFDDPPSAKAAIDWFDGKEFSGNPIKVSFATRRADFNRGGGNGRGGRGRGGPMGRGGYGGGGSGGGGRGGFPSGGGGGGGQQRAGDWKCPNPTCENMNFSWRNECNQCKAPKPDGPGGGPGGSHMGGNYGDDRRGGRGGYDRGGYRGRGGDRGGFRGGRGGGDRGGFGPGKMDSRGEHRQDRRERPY

As to GGAUCUUUAACUACUCAAGAUACUGAACAUGACAUGGUA (structured_RNA) [SON pre-mRNA stem loop with downstream GGU motif], the binding result was “binds”.
